Measured values from patent US20140213513A1 (Sanofi, priority 2012, published 2014).
*1 amine or outer side, *2 acyl side, *3 side chain or, on linkers, in order; H or OH if unused. Where no end group is shown, it is not given here. Side-chain parts run from the residue outwards. [ ]: non-standard residue; d: D form. The star is where a group is joined. γGlu = O=C(O)[C@H](CCC(=O)[*:2])N[*:1]; Stearoyl = CCCCCCCCCCCCCCCCCC(=O)*; Palmitoyl = CCCCCCCCCCCCCCCC(=O)*; Aib = CC(C)(N)C(=O)O

T1: human GIP receptor (human, UniProt P48546 22-466)
T1 sequence (looked up): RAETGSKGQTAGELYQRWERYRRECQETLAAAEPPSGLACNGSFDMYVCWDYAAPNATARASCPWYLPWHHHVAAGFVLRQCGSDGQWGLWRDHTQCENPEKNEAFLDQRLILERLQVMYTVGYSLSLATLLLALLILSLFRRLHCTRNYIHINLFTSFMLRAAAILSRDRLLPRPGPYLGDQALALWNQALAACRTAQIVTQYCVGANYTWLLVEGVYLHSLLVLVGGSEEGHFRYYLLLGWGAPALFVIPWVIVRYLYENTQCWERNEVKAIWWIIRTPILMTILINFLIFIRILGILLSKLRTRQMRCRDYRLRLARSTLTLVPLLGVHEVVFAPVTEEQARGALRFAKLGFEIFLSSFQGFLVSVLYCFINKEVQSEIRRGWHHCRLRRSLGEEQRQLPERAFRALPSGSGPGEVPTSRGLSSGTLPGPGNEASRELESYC


Tests used:
Test in all cases: cell-based or functional assay
human GIP receptor = biological target: T1, human GIP receptor
human GLP-1 receptor = human GLP-1 receptor (human, UniProt P43220 24-463)
human glucagon receptor = human glucagon receptor (human, UniProt P47871 26-477)
Sequence of human glucagon receptor (P47871 26-477): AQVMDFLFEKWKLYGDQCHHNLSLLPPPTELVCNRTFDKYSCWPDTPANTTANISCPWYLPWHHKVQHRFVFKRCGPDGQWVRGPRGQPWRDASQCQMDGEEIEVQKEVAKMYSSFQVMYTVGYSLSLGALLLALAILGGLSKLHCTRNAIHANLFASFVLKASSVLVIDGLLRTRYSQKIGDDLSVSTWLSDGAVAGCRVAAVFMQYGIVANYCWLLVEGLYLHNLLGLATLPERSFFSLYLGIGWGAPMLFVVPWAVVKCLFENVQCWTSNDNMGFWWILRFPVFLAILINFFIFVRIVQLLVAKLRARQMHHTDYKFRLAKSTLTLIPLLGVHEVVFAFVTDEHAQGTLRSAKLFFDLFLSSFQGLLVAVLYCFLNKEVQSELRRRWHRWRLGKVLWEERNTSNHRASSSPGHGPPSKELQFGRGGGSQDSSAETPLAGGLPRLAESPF

Binder | EC50 hGIP R (human GIP receptor) [pM] | EC50 hGLP-1 R (human GLP-1 receptor) [pM] | EC50 hGLUC R (human glucagon receptor) [pM]
Y[Aib]EGTFTSDLSIQK([γGlu-Stearoyl])ESKAA[Aib]EFIEWLKAGGPSSGAPPPS-NH2 (N-terminus assumed; SMILES CCCCCCCCCCCCCCCCCC(=O)N[C@@H](CCC(=O)NCCCC[C@H](NC(=O)[C@H](CCC(N)=O)NC(=O)[C@@H](NC(=O)[C@H](CO)NC(=O)[C@H](CC(C)C)NC(=O)[C@H](CC(=O)O)NC(=O)[C@H](CO)NC(=O)[C@@H](NC(=O)[C@H](Cc1ccccc1)NC(=O)[C@@H](NC(=O)CNC(=O)[C@H](CCC(=O)O)NC(=O)C(C)(C)NC(=O)[C@@H](N)Cc1ccc(O)cc1)[C@@H](C)O)[C@@H](C)O)[C@@H](C)CC)C(=O)N[C@@H](CCC(=O)O)C(=O)N[C@@H](CO)C(=O)N[C@@H](CCCCN)C(=O)N[C@@H](C)C(=O)N[C@@H](C)C(=O)NC(C)(C)C(=O)N[C@@H](CCC(=O)O)C(=O)N[C@@H](Cc1ccccc1)C(=O)N[C@H](C(=O)N[C@@H](CCC(=O)O)C(=O)N[C@@H](Cc1c[nH]c2ccccc12)C(=O)N[C@@H](CC(C)C)C(=O)N[C@@H](CCCCN)C(=O)N[C@@H](C)C(=O)NCC(=O)NCC(=O)N1CCC[C@H]1C(=O)N[C@@H](CO)C(=O)N[C@@H](CO)C(=O)NCC(=O)N[C@@H](C)C(=O)N1CCC[C@H]1C(=O)N1CCC[C@H]1C(=O)N1CCC[C@H]1C(=O)N[C@@H](CO)C(N)=O)[C@@H](C)CC)C(=O)O) [exendin-4 peptide analogue SEQ ID NO: 29] | 13 | 7.2 | 15000
Y[Aib]QGTFTSDLSIQK(Palmitoyl)EKRAV[Aib]LFIEWLKAGGPSSGAPPPS-NH2 (N-terminus assumed; SMILES CCCCCCCCCCCCCCCC(=O)NCCCC[C@H](NC(=O)[C@H](CCC(N)=O)NC(=O)[C@@H](NC(=O)[C@H](CO)NC(=O)[C@H](CC(C)C)NC(=O)[C@H](CC(=O)O)NC(=O)[C@H](CO)NC(=O)[C@@H](NC(=O)[C@H](Cc1ccccc1)NC(=O)[C@@H](NC(=O)CNC(=O)[C@H](CCC(N)=O)NC(=O)C(C)(C)NC(=O)[C@@H](N)Cc1ccc(O)cc1)[C@@H](C)O)[C@@H](C)O)[C@@H](C)CC)C(=O)N[C@@H](CCC(=O)O)C(=O)N[C@@H](CCCCN)C(=O)N[C@@H](CCCNC(=N)N)C(=O)N[C@@H](C)C(=O)N[C@H](C(=O)NC(C)(C)C(=O)N[C@@H](CC(C)C)C(=O)N[C@@H](Cc1ccccc1)C(=O)N[C@H](C(=O)N[C@@H](CCC(=O)O)C(=O)N[C@@H](Cc1c[nH]c2ccccc12)C(=O)N[C@@H](CC(C)C)C(=O)N[C@@H](CCCCN)C(=O)N[C@@H](C)C(=O)NCC(=O)NCC(=O)N1CCC[C@H]1C(=O)N[C@@H](CO)C(=O)N[C@@H](CO)C(=O)NCC(=O)N[C@@H](C)C(=O)N1CCC[C@H]1C(=O)N1CCC[C@H]1C(=O)N1CCC[C@H]1C(=O)N[C@@H](CO)C(N)=O)[C@@H](C)CC)C(C)C) [exendin-4 peptide analogue SEQ ID NO: 25] | 176 | 37 | 2030
Y[Aib]QGTFTSDLSIQK([γGlu-Palmitoyl])DKRAA[Aib]LFIEWLKAGGPSSGAPPPS-NH2 (N-terminus assumed; SMILES CCCCCCCCCCCCCCCC(=O)N[C@@H](CCC(=O)NCCCC[C@H](NC(=O)[C@H](CCC(N)=O)NC(=O)[C@@H](NC(=O)[C@H](CO)NC(=O)[C@H](CC(C)C)NC(=O)[C@H](CC(=O)O)NC(=O)[C@H](CO)NC(=O)[C@@H](NC(=O)[C@H](Cc1ccccc1)NC(=O)[C@@H](NC(=O)CNC(=O)[C@H](CCC(N)=O)NC(=O)C(C)(C)NC(=O)[C@@H](N)Cc1ccc(O)cc1)[C@@H](C)O)[C@@H](C)O)[C@@H](C)CC)C(=O)N[C@@H](CC(=O)O)C(=O)N[C@@H](CCCCN)C(=O)N[C@@H](CCCNC(=N)N)C(=O)N[C@@H](C)C(=O)N[C@@H](C)C(=O)NC(C)(C)C(=O)N[C@@H](CC(C)C)C(=O)N[C@@H](Cc1ccccc1)C(=O)N[C@H](C(=O)N[C@@H](CCC(=O)O)C(=O)N[C@@H](Cc1c[nH]c2ccccc12)C(=O)N[C@@H](CC(C)C)C(=O)N[C@@H](CCCCN)C(=O)N[C@@H](C)C(=O)NCC(=O)NCC(=O)N1CCC[C@H]1C(=O)N[C@@H](CO)C(=O)N[C@@H](CO)C(=O)NCC(=O)N[C@@H](C)C(=O)N1CCC[C@H]1C(=O)N1CCC[C@H]1C(=O)N1CCC[C@H]1C(=O)N[C@@H](CO)C(N)=O)[C@@H](C)CC)C(=O)O) [exendin-4 peptide analogue SEQ ID NO: 27] | 82.6 | 14.7 | 38.9
Y[Aib]HGTFTSDLSKQK([γGlu-Palmitoyl])EKRAA[Aib]EFIEWLKNTGPSSGAPPPS-NH2 (N-terminus assumed; SMILES CCCCCCCCCCCCCCCC(=O)N[C@@H](CCC(=O)NCCCC[C@H](NC(=O)[C@H](CCC(N)=O)NC(=O)[C@H](CCCCN)NC(=O)[C@H](CO)NC(=O)[C@H](CC(C)C)NC(=O)[C@H](CC(=O)O)NC(=O)[C@H](CO)NC(=O)[C@@H](NC(=O)[C@H](Cc1ccccc1)NC(=O)[C@@H](NC(=O)CNC(=O)[C@H](Cc1c[nH]cn1)NC(=O)C(C)(C)NC(=O)[C@@H](N)Cc1ccc(O)cc1)[C@@H](C)O)[C@@H](C)O)C(=O)N[C@@H](CCC(=O)O)C(=O)N[C@@H](CCCCN)C(=O)N[C@@H](CCCNC(=N)N)C(=O)N[C@@H](C)C(=O)N[C@@H](C)C(=O)NC(C)(C)C(=O)N[C@@H](CCC(=O)O)C(=O)N[C@@H](Cc1ccccc1)C(=O)N[C@H](C(=O)N[C@@H](CCC(=O)O)C(=O)N[C@@H](Cc1c[nH]c2ccccc12)C(=O)N[C@@H](CC(C)C)C(=O)N[C@@H](CCCCN)C(=O)N[C@@H](CC(N)=O)C(=O)N[C@H](C(=O)NCC(=O)N1CCC[C@H]1C(=O)N[C@@H](CO)C(=O)N[C@@H](CO)C(=O)NCC(=O)N[C@@H](C)C(=O)N1CCC[C@H]1C(=O)N1CCC[C@H]1C(=O)N1CCC[C@H]1C(=O)N[C@@H](CO)C(N)=O)[C@@H](C)O)[C@@H](C)CC)C(=O)O) [exendin-4 peptide analogue SEQ ID NO: 28] | 36.8 | 58.3 | 4.8
Y[Aib]QGTFTSDLSIQK([γGlu-Palmitoyl])EKRAV[Aib]EFIEWLKAGGPSSGAPPPS-NH2 (N-terminus assumed; SMILES CCCCCCCCCCCCCCCC(=O)N[C@@H](CCC(=O)NCCCC[C@H](NC(=O)[C@H](CCC(N)=O)NC(=O)[C@@H](NC(=O)[C@H](CO)NC(=O)[C@H](CC(C)C)NC(=O)[C@H](CC(=O)O)NC(=O)[C@H](CO)NC(=O)[C@@H](NC(=O)[C@H](Cc1ccccc1)NC(=O)[C@@H](NC(=O)CNC(=O)[C@H](CCC(N)=O)NC(=O)C(C)(C)NC(=O)[C@@H](N)Cc1ccc(O)cc1)[C@@H](C)O)[C@@H](C)O)[C@@H](C)CC)C(=O)N[C@@H](CCC(=O)O)C(=O)N[C@@H](CCCCN)C(=O)N[C@@H](CCCNC(=N)N)C(=O)N[C@@H](C)C(=O)N[C@H](C(=O)NC(C)(C)C(=O)N[C@@H](CCC(=O)O)C(=O)N[C@@H](Cc1ccccc1)C(=O)N[C@H](C(=O)N[C@@H](CCC(=O)O)C(=O)N[C@@H](Cc1c[nH]c2ccccc12)C(=O)N[C@@H](CC(C)C)C(=O)N[C@@H](CCCCN)C(=O)N[C@@H](C)C(=O)NCC(=O)NCC(=O)N1CCC[C@H]1C(=O)N[C@@H](CO)C(=O)N[C@@H](CO)C(=O)NCC(=O)N[C@@H](C)C(=O)N1CCC[C@H]1C(=O)N1CCC[C@H]1C(=O)N1CCC[C@H]1C(=O)N[C@@H](CO)C(N)=O)[C@@H](C)CC)C(C)C)C(=O)O) [exendin-4 peptide analogue SEQ ID NO: 26] | 5.3 | 17.6 | 300
Y[Aib]EGTFTSDLSKQK([γGlu-Palmitoyl])DKRAAQDFIEWLKNGGPSSGAPPPS-NH2 (N-terminus assumed; SMILES CCCCCCCCCCCCCCCC(=O)N[C@@H](CCC(=O)NCCCC[C@H](NC(=O)[C@H](CCC(N)=O)NC(=O)[C@H](CCCCN)NC(=O)[C@H](CO)NC(=O)[C@H](CC(C)C)NC(=O)[C@H](CC(=O)O)NC(=O)[C@H](CO)NC(=O)[C@@H](NC(=O)[C@H](Cc1ccccc1)NC(=O)[C@@H](NC(=O)CNC(=O)[C@H](CCC(=O)O)NC(=O)C(C)(C)NC(=O)[C@@H](N)Cc1ccc(O)cc1)[C@@H](C)O)[C@@H](C)O)C(=O)N[C@@H](CC(=O)O)C(=O)N[C@@H](CCCCN)C(=O)N[C@@H](CCCNC(=N)N)C(=O)N[C@@H](C)C(=O)N[C@@H](C)C(=O)N[C@@H](CCC(N)=O)C(=O)N[C@@H](CC(=O)O)C(=O)N[C@@H](Cc1ccccc1)C(=O)N[C@H](C(=O)N[C@@H](CCC(=O)O)C(=O)N[C@@H](Cc1c[nH]c2ccccc12)C(=O)N[C@@H](CC(C)C)C(=O)N[C@@H](CCCCN)C(=O)N[C@@H](CC(N)=O)C(=O)NCC(=O)NCC(=O)N1CCC[C@H]1C(=O)N[C@@H](CO)C(=O)N[C@@H](CO)C(=O)NCC(=O)N[C@@H](C)C(=O)N1CCC[C@H]1C(=O)N1CCC[C@H]1C(=O)N1CCC[C@H]1C(=O)N[C@@H](CO)C(N)=O)[C@@H](C)CC)C(=O)O) [exendin-4 peptide analogue SEQ ID NO: 30] | 16.3 | 5 | 1450
